# Measured values as given in the Human Domainome abundance scans (Beltran et al. 2025).
# ± gives the uncertainty stated by the source.
# Assay: abundance fitness (aPCA) (normalised: wild type 0, dead -1); higher = more abundant; growth selection in yeast, the domain comes from the species named
# Conditions: Homo sapiens
row,Substance,abundance fitness
1,"SAFB-like transcription modulator K31V, Q9NWH9",-0.056 ± 0.053
2,"SAFB-like transcription modulator K31W, Q9NWH9",-0.237 ± 0.053
3,"SAFB-like transcription modulator K31Y, Q9NWH9",-0.213 ± 0.075
4,"SAFB-like transcription modulator K35A, Q9NWH9",-0.08 ± 0.072
5,"SAFB-like transcription modulator K35C, Q9NWH9",-0.528 ± 0.23
6,"SAFB-like transcription modulator K35D, Q9NWH9",-0.046 ± 0.097
7,"SAFB-like transcription modulator K35E, Q9NWH9",-0.013 ± 0.083
8,"SAFB-like transcription modulator K35F, Q9NWH9",-0.267 ± 0.17
9,"SAFB-like transcription modulator K35G, Q9NWH9",0.023 ± 0.051
10,"SAFB-like transcription modulator K35I, Q9NWH9",-0.067 ± 0.037
11,"SAFB-like transcription modulator K35L, Q9NWH9",-0.44 ± 0.11
12,"SAFB-like transcription modulator K35M, Q9NWH9",-0.035 ± 0.079
13,"SAFB-like transcription modulator K35P, Q9NWH9",-0.943 ± 0.14
14,"SAFB-like transcription modulator K35Q, Q9NWH9",0.052 ± 0.053
15,"SAFB-like transcription modulator K35R, Q9NWH9",-0.023 ± 0.041
16,"SAFB-like transcription modulator K35S, Q9NWH9",-0.034 ± 0.07
17,"SAFB-like transcription modulator K35T, Q9NWH9",-0.474 ± 0.13
18,"SAFB-like transcription modulator K35V, Q9NWH9",-0.11 ± 0.042
19,"SAFB-like transcription modulator K35W, Q9NWH9",-0.163 ± 0.077
20,"SAFB-like transcription modulator K35Y, Q9NWH9",-0.086 ± 0.37
21,"SAFB-like transcription modulator K45A, Q9NWH9",-0.224 ± 0.068
22,"SAFB-like transcription modulator K45C, Q9NWH9",-0.617 ± 0.052
23,"SAFB-like transcription modulator K45D, Q9NWH9",-0.208 ± 0.037
24,"SAFB-like transcription modulator K45E, Q9NWH9",-0.096 ± 0.038
25,"SAFB-like transcription modulator K45F, Q9NWH9",-0.55 ± 0.037
26,"SAFB-like transcription modulator K45G, Q9NWH9",-0.2 ± 0.066

row,Substance,abundance fitness
1,"SAFB-like transcription modulator K45H, Q9NWH9",-0.372 ± 0.12
2,"SAFB-like transcription modulator K45I, Q9NWH9",-0.513 ± 0.079
3,"SAFB-like transcription modulator K45L, Q9NWH9",-0.731 ± 0.056
4,"SAFB-like transcription modulator K45M, Q9NWH9",-0.325 ± 0.076
5,"SAFB-like transcription modulator K45N, Q9NWH9",-0.334 ± 0.086
6,"SAFB-like transcription modulator K45P, Q9NWH9",-0.194 ± 0.077
7,"SAFB-like transcription modulator K45Q, Q9NWH9",-0.099 ± 0.084
8,"SAFB-like transcription modulator K45S, Q9NWH9",-0.25 ± 0.055
9,"SAFB-like transcription modulator K45T, Q9NWH9",-0.095 ± 0.053
10,"SAFB-like transcription modulator K45V, Q9NWH9",-0.399 ± 0.052
11,"SAFB-like transcription modulator K45W, Q9NWH9",-0.293 ± 0.054
12,"SAFB-like transcription modulator K45Y, Q9NWH9",-0.005 ± 0.085
13,"SAFB-like transcription modulator K53A, Q9NWH9",0.006 ± 0.071
14,"SAFB-like transcription modulator K53C, Q9NWH9",-0.231 ± 0.052
15,"SAFB-like transcription modulator K53D, Q9NWH9",-0.931 ± 0.3
16,"SAFB-like transcription modulator K53E, Q9NWH9",-0.351 ± 0.099
17,"SAFB-like transcription modulator K53F, Q9NWH9",-0.291 ± 0.06
18,"SAFB-like transcription modulator K53G, Q9NWH9",-0.35 ± 0.089
19,"SAFB-like transcription modulator K53H, Q9NWH9",-0.039 ± 0.14
20,"SAFB-like transcription modulator K53I, Q9NWH9",-0.369 ± 0.08
21,"SAFB-like transcription modulator K53M, Q9NWH9",-0.407 ± 0.12
22,"SAFB-like transcription modulator K53N, Q9NWH9",-0.295 ± 0.11
23,"SAFB-like transcription modulator K53P, Q9NWH9",-0.778 ± 0.058
24,"SAFB-like transcription modulator K53Q, Q9NWH9",-0.159 ± 0.084
25,"SAFB-like transcription modulator K53R, Q9NWH9",0.05 ± 0.059
